Source: article PMC7026398, “Structural and functional insight into the effect of AFF4 dimerization on activation of HIV-1 proviral transcription” (Cell Discovery, 2020)

Molecular target: Flag-AFF1 F1063A+Y1145A+V1146A+V1152A, full length (UniProt P51825)

B1: Flag-AFF1 F1063A+Y1145A+V1146A+V1152A, full length (natural protein)
chain: MAAQSSLYNDDRNLLRIREKERRNQEAHQEKEAFPEKIPLFGEPYKTAKGDELSSRIQNMLGNYEEVKEFLSTKSHTHRLDASENRLGKPKYPLIPDKGSSIPSSSFHTSVHHQSIHTPASGPLSVGNISHNPKMAQPRTEPMPSLHAKSCGPPDSQHLTQDRLGQEGFGSSHHKKGDRRADGDHCASVTDSAPERELSPLISLPSPVPPLSPIHSNQQTLPRTQGSSKVHGSSNNSKGYCPAKSPKDLAVKVHDKETPQDSLVAPAQPPSQTFPPPSLPSKSVAMQQKPTAYVRPMDGQDQAPSESPELKPLPEDYRQQTFEKTDLKVPAKAKLTKLKMPSQSVEQTYSNEVHCVEEILKEMTHSWPPPLTAIHTPSTAEPSKFPFPTKDSQHVSSVTQNQKQYDTSSKTHSNSQQGTSSMLEDDLQLSDSEDSDSEQTPEKPPSSSAPPSAPQSLPEPVASAHSSSAESESTSDSDSSSDSESESSSSDSEENEPLETPAPEPEPPTTNKWQLDNWLTKVSQPAAPPEGPRSTEPPRRHPESKGSSDSATSQEHSESKDPPPKSSSKAPRAPPEAPHPGKRSCQKSPAQQEPPQRQTVGTKQPKKPVKASARAGSRTSLQGEREPGLLPYGSRDQTSKDKPKVKTKGRPRAAASNEPKPAVPPSSEKKKHKSSLPAPSKALSGPEPAKDNVEDRTPEHFALVPLTESQGPPHSGSGSRTSGCRQAVVVQEDSRKDRLPLPLRDTKLLSPLRDTPPPQSLMVKITLDLLSRIPQPPGKGSRQRKAEDKQPPAGKKHSSEKRSSDSSSKLAKKRKGEAERDCDNKKIRLEKEIKSQSSSSSSSHKESSKTKPSRPSSQSSKKEMLPPPPVSSSSQKPAKPALKRSRREADTCGQDPPKSASSTKSNHKDSSIPKQRRVEGKGSRSSSEHKGSSGDTANPFPVPSLPNGNSKPGKPQVKFDKQQADLHMREAKKMKQKAELMTDRVGKAFKYLEAVLSFIECGIATESESQSSKSAYSVYSETVDLIKFIMSLKSFSDATAPTQEKIFAVLCMRCQSILNMAMARCKKDIAIKYSRTLNKHFESSSKVAQAPSPCIASTGTPSPLSPMPSPASSVGSQSSAGSVGSSGVAATISTPVTIQNMTSSAATITSHALTAFDLWEQAEALTRKNKEFFARLSTNVCTLALNSSLVDLVHYTRQGFQQLQELTKTP
How did the HIV-LTR-luciferase reporter in NH1 cells, overexpressed Flag-AFF1 mutant against wild-type AFF1 (fold less than wild-type AFF1) turn out when B1 was run?
Its HIV-LTR-luciferase reporter in NH1 cells, overexpressed Flag-AFF1 mutant against wild-type AFF1 (fold less than wild-type AFF1) is 1.
